The target of data set [1] is T1, variant nuclease D590G combination (P14R, D32R, I61R, E311R, D590G).
T1 chain: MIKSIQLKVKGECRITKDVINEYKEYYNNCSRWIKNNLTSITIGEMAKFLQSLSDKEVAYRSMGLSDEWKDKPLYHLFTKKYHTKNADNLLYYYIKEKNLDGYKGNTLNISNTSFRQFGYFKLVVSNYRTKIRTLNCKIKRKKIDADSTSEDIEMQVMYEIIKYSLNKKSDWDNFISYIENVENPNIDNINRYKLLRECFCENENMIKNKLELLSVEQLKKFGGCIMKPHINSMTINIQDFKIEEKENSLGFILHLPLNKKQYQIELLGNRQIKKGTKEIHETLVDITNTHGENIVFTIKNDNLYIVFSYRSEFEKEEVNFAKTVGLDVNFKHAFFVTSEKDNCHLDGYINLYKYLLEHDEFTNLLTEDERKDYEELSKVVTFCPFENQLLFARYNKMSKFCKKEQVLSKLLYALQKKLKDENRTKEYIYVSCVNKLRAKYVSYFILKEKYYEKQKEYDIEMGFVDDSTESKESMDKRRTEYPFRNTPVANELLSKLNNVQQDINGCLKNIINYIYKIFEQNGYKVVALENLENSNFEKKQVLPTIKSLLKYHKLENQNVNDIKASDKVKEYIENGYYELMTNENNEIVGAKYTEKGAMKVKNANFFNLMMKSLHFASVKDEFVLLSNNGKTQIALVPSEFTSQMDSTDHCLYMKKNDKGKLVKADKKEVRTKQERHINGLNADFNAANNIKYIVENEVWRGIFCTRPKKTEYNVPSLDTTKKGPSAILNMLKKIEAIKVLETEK
Briefly: cell_activity; PAM 5'-TTTA-3'. The conditions noted are these: tags: pcDNA3.1 expression. The method, boiled down:
(§1)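 HEK293T cells were lipofected with nuclease plasmid (pcDNA3.1 backbone) plus RNA guide plasmid, with guide omitted in negative controls. After ~72 h cells were lysed in QuickExtract and % indels were derived from NGS reads, averaged over two bioreplicates and two technical replicates.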

Data set [2] deals with T2, variant nuclease K35G combination (P14R, D32R, I61R, E311R, K35G).
T2 chain: T1 chain with K35G, G590D
Description: cell_activity; PAM 5'-TTTA-3'. The conditions noted are these: tags: pcDNA3.1 expression. An outline of the steps: as §1

Residue numbers refer to the chain shown, from its start.

B1: VEGFA crRNA ; VEGFA target (ssRNA ; dsDNA)
RNA: CUUGUUGUAUAUGUCCUUUUAUAGGUAUUAAACAACUCCAGACCACCAAUGGGCAC
DNA 1: TCCAGACCACCAATGGGCAC
DNA 2: GTGCCCATTGGTGGTCTGGA
Consider B1, for which the indel activity in data set [1] is 2.68 fold of WT; in data set [2], 2.69 fold of WT.

Values taken from US20240035010, “COMPOSITIONS COMPRISING A VARIANT POLYPEPTIDE AND USES THEREOF” (Arbor Biotechnologies, Inc., published 2024).
